We go through 1 substance from EP4682169A1.

The target of assay [1] is Human Claudin-18.2 protein (human) (UniProt P56856). Put plainly: SPR (Biacore 8K), antibody captured on Protein A, Claudin-18.2 protein as analyte.
Assay [2] has as its target human Claudin18.2 expressed on cells (human) (UniProt P56856). Briefly: flow cytometry on 293FT CLDN18.2-Luc cells, APC anti-mouse IgG Fc.

As for IMAB-mIgG2aFc (antibody), in assay [1], the Kd was 5.65 nM, the koff was found to be 0.000753 s⁻¹ and the kon is 133000 M⁻¹ s⁻¹. The EC50 in assay [2] is 0.07 nM.
